Common to all, as to test: cross-linking
The target of one assay is T1, Smc3(R1222C) (S. cerevisiae, UniProt P47037 1-1230, R1222C).
T1 sequence (looked up): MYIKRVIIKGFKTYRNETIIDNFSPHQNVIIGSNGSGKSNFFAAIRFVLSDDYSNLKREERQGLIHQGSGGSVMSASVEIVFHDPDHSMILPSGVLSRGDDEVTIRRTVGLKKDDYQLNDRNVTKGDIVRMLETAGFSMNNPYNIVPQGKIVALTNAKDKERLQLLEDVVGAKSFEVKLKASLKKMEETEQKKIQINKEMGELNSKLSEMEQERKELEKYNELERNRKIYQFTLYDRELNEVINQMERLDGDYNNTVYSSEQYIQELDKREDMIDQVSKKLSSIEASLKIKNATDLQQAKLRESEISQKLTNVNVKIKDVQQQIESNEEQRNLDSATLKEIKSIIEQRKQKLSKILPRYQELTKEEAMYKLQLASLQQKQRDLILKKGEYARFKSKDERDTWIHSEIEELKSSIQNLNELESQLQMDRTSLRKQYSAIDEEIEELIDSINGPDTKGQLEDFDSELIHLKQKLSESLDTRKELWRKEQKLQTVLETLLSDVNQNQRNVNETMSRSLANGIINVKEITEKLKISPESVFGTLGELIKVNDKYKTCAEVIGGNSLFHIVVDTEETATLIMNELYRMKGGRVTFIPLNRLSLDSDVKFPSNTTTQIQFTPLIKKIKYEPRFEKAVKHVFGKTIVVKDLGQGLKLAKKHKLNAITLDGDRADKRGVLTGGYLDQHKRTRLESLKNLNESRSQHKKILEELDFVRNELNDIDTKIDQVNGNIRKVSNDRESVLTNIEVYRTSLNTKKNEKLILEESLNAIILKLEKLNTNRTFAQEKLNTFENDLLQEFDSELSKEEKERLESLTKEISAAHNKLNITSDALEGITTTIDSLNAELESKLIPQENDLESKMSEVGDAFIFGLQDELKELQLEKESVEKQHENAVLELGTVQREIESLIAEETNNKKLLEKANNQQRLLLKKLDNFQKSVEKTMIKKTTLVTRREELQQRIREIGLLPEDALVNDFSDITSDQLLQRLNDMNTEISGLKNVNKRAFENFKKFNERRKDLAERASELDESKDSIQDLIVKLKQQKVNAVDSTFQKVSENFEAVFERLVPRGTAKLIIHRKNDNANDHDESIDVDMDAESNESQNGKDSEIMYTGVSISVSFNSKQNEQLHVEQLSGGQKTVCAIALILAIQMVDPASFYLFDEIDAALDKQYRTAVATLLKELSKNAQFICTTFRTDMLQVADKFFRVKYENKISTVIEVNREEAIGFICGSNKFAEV

The next assay concerns the target T2, acetylated Smc3(R1222C) (S. cerevisiae, UniProt P47037 1-1230, R1222C, acetylated, residues not given).
T2 sequence (looked up): T1 sequence (looked up)

In a further assay the target is T3, Smc3(K160C) (S. cerevisiae, UniProt P47037 1-1230, K160C).
T3 sequence (looked up): T1 sequence (looked up) with K160C, C1222R

For the next assay, the target named is T4, acetylated Smc3(K160C) (S. cerevisiae, UniProt P47037 1-1230, K160C, acetylated, residues not given).
T4 sequence (looked up): T1 sequence (looked up) with K160C, C1222R

Where a chain is given by its changes, count along the chain named. In names and notes the source's numbering stands.

B1: Smc1(N1192C)-HA6 (natural protein, S. cerevisiae, UniProt P32908 1-1225, looked up)
chain: MGRLVGLELSNFKSYRGVTKVGFGESNFTSIIGPNGSGKSNMMDAISFVLGVRSNHLRSNILKDLIYRGVLNDENSDDYDNEGAASSNPQSAYVKAFYQKGNKLVELMRIISRNGDTSYKIDGKTVSYKDYSIFLENENILIKAKNFLVFQGDVEQIAAQSPVELSRMFEEVSGSIQYKKEYEELKEKIEKLSKSATESIKNRRRIHGELKTYKEGINKNEEYRKQLDKKNELQKFQALWQLYHLEQQKEELTDKLSALNSEISSLKGKINNEMKSLQRSKSSFVKESAVISKQKSKLDYIFKDKEKLVSDLRLIKVPQQAAGKRISHIEKRIESLQKDLQRQKTYVERFETQLKVVTRSKEAFEEEIKQSARNYDKFKLNENDLKTYNCLHEKYLTEGGSILEEKIAVLNNDKREIQEELERFNKRADISKRRITEELSITGEKLDTQLNDLRVSLNEKNALHTERLHELKKLQSDIESANNQEYDLNFKLRETLVKIDDLSANQRETMKERKLRENIAMLKRFFPGVKGLVHDLCHPKKEKYGLAVSTILGKNFDSVIVENLTVAQECIAFLKKQRAGTASFIPLDTIETELPTLSLPDSQDYILSINAIDYEPEYEKAMQYVCGDSIICNTLNIAKDLKWKKGIRGKLVTIEGALIHKAGLMTGGISGDANNRWDKEEYQSLMSLKDKLLIQIDELSNGQRSNSIRAREVENSVSLLNSDIANLRTQVTQQKRSLDENRLEIKYHNDLIEKEIQPKITELKKKLDDLENTKDNLVKEKEALQNNIFKEFTSKIGFTIKEYENHSGELMRQQSKELQQLQKQILTVENKLQFETDRLSTTQRRYEKAQKDLENAQVEMKSLEEQEYAIEMKIGSIESKLEEHKNHLDELQKKFVTKQSELNSSEDILEDMNSNLQVLKRERDGIKEDIEKFDLERVTALKNCKISNINIPISSETTIDDLPISSTDNEAITISNSIDINYKGLPKKYKENNTDSARKELEQKIHEVEEILNELQPNARALERYDEAEGRFEVINNETEQLKAEEKKILNQFLKIKKKRKELFEKTFDYVSDHLDAIYRELTKNPNSNVELAGGNASLTIEDEDEPFNAGIKYHATPPLKRFKDMEYLSGGEKTVAALALLFAINSYQPSPFFVLDEVDAALDITNVQRIAAYIRRHRNPDLQFIVISLKCTMFEKSDALVGVYRQQQENSSKIITLDLSNYAE
Consider B1, for which the values for the cross-linking efficiency with Smc3(R1222C) and with acetylated Smc3(R1222C) were 41% and 3%, respectively.

B2: Smc1(S161C)-HA6 (natural protein, S. cerevisiae, UniProt P32908 1-1225, looked up)
chain: B1 chain with S161C, C1192N
On to B2, for which the cross-linking efficiency was 7% with Smc3(K160C) and 37% in the assay with acetylated Smc3(K160C).

The values above are taken from article doi:10.1101/495762 (bioRxiv, 2018).
